Data reported in article PMC5943355.

Molecular target: Na+,HCO3- co-transporter NBCn1 (SLC4A7), native in MDCK-II cells (canine (endogenous in MDCK-II))
Assay: proximity ligation; in situ PLA (Duolink II) with primary antibodies against NBCn1 and RACK1 in fixed non-confluent (60-70% confluency) MDCK-II or MCF-7 cells; control with only NBCn1 antibody

How did the PLA signal, fold above the control with only NBCn1 antibody turn out when “RACK1, native in MDCK-II cells (natural protein)” was run?
Its PLA signal, fold above the control with only NBCn1 antibody is 8 fold.
